This is an account of results in the Human Domainome abundance scans (Beltran et al. 2025).

First the molecules themselves.
B1: Nuclear receptor subfamily 4 group A member 2, residues 260 to 336; numbered along this chain, P43354 (parent)
chain: EGLCAVCGDNAACQHYGVRTCEGCKGFFKRTVQKNAKYVCLANKNCPVDKRRRNRCQYCRFQKCLAVGMVKEVVRTD

± gives the uncertainty stated by the source.

The data set covers variants of B1. Kind of data set: abundance fitness (aPCA) (normalised: wild type 0, dead -1); higher = more abundant; growth selection in yeast, the domain comes from the species named. The conditions noted are these: Homo sapiens.
EGLCAVCGDNAACQHYGVRTCEGCKGFFKRTVQKQAKYVCLANKNCPVDKRRRNRCQYCRFQKCLAVGMVKEVVRTD [N35Q]: the abundance fitness is -0.081 ± 0.1.

In the case of EGLCAVCGDNAACQHYGVRTCEGCKGFFKRTVQKDAKYVCLANKNCPVDKRRRNRCQYCRFQKCLAVGMVKEVVRTD [N35D], the abundance fitness worked out at 0.118 ± 0.12.

Regarding EGLCAVCGDNAACQHYGVRTCEGCKGFFKRTVQKLAKYVCLANKNCPVDKRRRNRCQYCRFQKCLAVGMVKEVVRTD [N35L], the abundance fitness was -0.085 ± 0.087.

Consider EGLCAVCGDNAACQHYGVRTCEGCKGFFKRTVQKEAKYVCLANKNCPVDKRRRNRCQYCRFQKCLAVGMVKEVVRTD [N35E], for which the abundance fitness worked out at 0.071 ± 0.094.

EGLCAVCGDNAACQHYGVRTCEGCKGFFKRTVQKRAKYVCLANKNCPVDKRRRNRCQYCRFQKCLAVGMVKEVVRTD [N35R]: the abundance fitness is -0.136 ± 0.088.

For the variant EGLCAVCGDNAACQHYGVRTCEGCKGFFKRTVQKFAKYVCLANKNCPVDKRRRNRCQYCRFQKCLAVGMVKEVVRTD [N35F], the abundance fitness is -0.089 ± 0.35.

Take EGLCAVCGDNAACQHYGVRTCEGCKGFFKRTVQKKAKYVCLANKNCPVDKRRRNRCQYCRFQKCLAVGMVKEVVRTD [N35K]: the abundance fitness is 0.033 ± 0.12.

In the case of EGLCAVCGDNAACQHYGVRTCEGCKGFFKRTVQKVAKYVCLANKNCPVDKRRRNRCQYCRFQKCLAVGMVKEVVRTD [N35V], the abundance fitness was -0.487 ± 0.12.

Take EGLCAVCGDNAACQHYGVRTCEGCKGFFKRTVQKIAKYVCLANKNCPVDKRRRNRCQYCRFQKCLAVGMVKEVVRTD [N35I]: the abundance fitness is -0.127 ± 0.27.

As to EGLCAVCGDNAACQHYGVRTCEGCKGFFKRTVQKCAKYVCLANKNCPVDKRRRNRCQYCRFQKCLAVGMVKEVVRTD [N35C], the abundance fitness is 0.141 ± 0.22.

As for EGLCAVCGDNAACQHYGVRTCEGCKGFFKRTVQKTAKYVCLANKNCPVDKRRRNRCQYCRFQKCLAVGMVKEVVRTD [N35T], the abundance fitness is -0.137 ± 0.13.

As to EGLCAVCGDNAACQHYGVRTCEGCKGFFKRTVQKAAKYVCLANKNCPVDKRRRNRCQYCRFQKCLAVGMVKEVVRTD [N35A], the abundance fitness was found to be 0.011 ± 0.068.

In the case of EGLCAVCGDNAACQHYGVRTCEGCKGFFPRTVQKNAKYVCLANKNCPVDKRRRNRCQYCRFQKCLAVGMVKEVVRTD [K29P], the abundance fitness was -0.126 ± 0.2.

On to EGLCAVCGDNAACQHYGVRTCEGCKGFFRRTVQKNAKYVCLANKNCPVDKRRRNRCQYCRFQKCLAVGMVKEVVRTD [K29R], for which the abundance fitness is -0.123 ± 0.08.

As for EGLCAVCGDNAACQHYGVRTCEGCKGFFHRTVQKNAKYVCLANKNCPVDKRRRNRCQYCRFQKCLAVGMVKEVVRTD [K29H], the abundance fitness was found to be 0.071 ± 0.17.

For the variant EGLCAVCGDNAACQHYGVRTCEGCKGFFARTVQKNAKYVCLANKNCPVDKRRRNRCQYCRFQKCLAVGMVKEVVRTD [K29A], the abundance fitness turned out to be 0.014 ± 0.096.

On to EGLCAVCGDNAACQHYGVRTCEGCKGFFMRTVQKNAKYVCLANKNCPVDKRRRNRCQYCRFQKCLAVGMVKEVVRTD [K29M], for which the abundance fitness came out at 0.296 ± 0.19.

Turning to EGLCAVCGDNAACQHYGVRTCEGCKGFFWRTVQKNAKYVCLANKNCPVDKRRRNRCQYCRFQKCLAVGMVKEVVRTD [K29W], the abundance fitness was -0.253 ± 0.19.

For the variant EGLCAVCGDNAACQHYGVRTCEGCKGFFQRTVQKNAKYVCLANKNCPVDKRRRNRCQYCRFQKCLAVGMVKEVVRTD [K29Q], the abundance fitness is -0.097 ± 0.12.

Turning to EGLCAVCGDNAACQHYGVRTCEGCKGFFIRTVQKNAKYVCLANKNCPVDKRRRNRCQYCRFQKCLAVGMVKEVVRTD [K29I], the abundance fitness is 0.214 ± 0.21.

Turning to EGLCAVCGDNAACQHYGVRTCEGCKGFFDRTVQKNAKYVCLANKNCPVDKRRRNRCQYCRFQKCLAVGMVKEVVRTD [K29D], the abundance fitness was 0.11 ± 0.21.

As for EGLCAVCGDNAACQHYGVRTCEGCKGFFNRTVQKNAKYVCLANKNCPVDKRRRNRCQYCRFQKCLAVGMVKEVVRTD [K29N], the abundance fitness is -0.138 ± 0.33.

In the case of EGLCAVCGDNAACQHYGVRTCEGCKGFFGRTVQKNAKYVCLANKNCPVDKRRRNRCQYCRFQKCLAVGMVKEVVRTD [K29G], the abundance fitness is -0.178 ± 0.074.

For the variant EGLCAVCGDNAACQHYGVRTCEGCKGFFLRTVQKNAKYVCLANKNCPVDKRRRNRCQYCRFQKCLAVGMVKEVVRTD [K29L], the abundance fitness was 0.008 ± 0.078.

With EGLCAVCGDNAACQHYGVRTCEGCKGFFCRTVQKNAKYVCLANKNCPVDKRRRNRCQYCRFQKCLAVGMVKEVVRTD [K29C], the abundance fitness is -0.239 ± 0.27.

Turning to EGLCAVCGDNAACQHYGVRTCEGCKGFFYRTVQKNAKYVCLANKNCPVDKRRRNRCQYCRFQKCLAVGMVKEVVRTD [K29Y], the abundance fitness is -0.344 ± 0.42.

As to EGLCAVCGDNAACQHYGVRTCEGCKGFFTRTVQKNAKYVCLANKNCPVDKRRRNRCQYCRFQKCLAVGMVKEVVRTD [K29T], the abundance fitness was -0.066 ± 0.16.

For EGLCAVCGDNAACQHYGVRTCEGCKGFFSRTVQKNAKYVCLANKNCPVDKRRRNRCQYCRFQKCLAVGMVKEVVRTD [K29S], the abundance fitness was determined as 0.121 ± 0.11.

Regarding EGLCAVCGDNAACQHYGVRTCEGCKGFFKRTEQKNAKYVCLANKNCPVDKRRRNRCQYCRFQKCLAVGMVKEVVRTD [V32E], the abundance fitness stood at 0.101 ± 0.45.

On to EGLCAVCGDNAACQHYGVRTCEGCKGFFKRTLQKNAKYVCLANKNCPVDKRRRNRCQYCRFQKCLAVGMVKEVVRTD [V32L], for which the abundance fitness is -0.511 ± 0.41.

Turning to EGLCAVCGDNAACQHYGVRTCEGCKGFFKRTKQKNAKYVCLANKNCPVDKRRRNRCQYCRFQKCLAVGMVKEVVRTD [V32K], the abundance fitness is -0.532 ± 0.26.

Turning to EGLCAVCGDNAACQHYGVRTCEGCKGFFKRTCQKNAKYVCLANKNCPVDKRRRNRCQYCRFQKCLAVGMVKEVVRTD [V32C], the abundance fitness is -0.071 ± 0.36.

For EGLCAVCGDNAACQHYGVRTCEGCKGFFKRTRQKNAKYVCLANKNCPVDKRRRNRCQYCRFQKCLAVGMVKEVVRTD [V32R], the abundance fitness is 0.256 ± 0.2.

Take EGLCAVCGDNAACQHYGVRTCEGCKGFFKRTAQKNAKYVCLANKNCPVDKRRRNRCQYCRFQKCLAVGMVKEVVRTD [V32A]: the abundance fitness stood at 0.211 ± 0.23.

EGLCAVCGDNAACQHYGVRTCEGCKGFFKRTHQKNAKYVCLANKNCPVDKRRRNRCQYCRFQKCLAVGMVKEVVRTD [V32H]: the abundance fitness was -0.224 ± 0.27.

For EGLCAVCGDNAACQHYGVRTCEGCKGFFKRTTQKNAKYVCLANKNCPVDKRRRNRCQYCRFQKCLAVGMVKEVVRTD [V32T], the abundance fitness came out at 0.036 ± 0.34.
